Experimental data from patent US6693076.

Columns and labels:
[1] = target: IGF-I receptor in homogenized adult rat brain tissue (cerebral cortex and cerebellum) (rat) (UniProt P24062); experiment: displacement of 20 pM 125I-[Thr59]IGF-I from homogenised rat brain tissue; competitor at 100 µM; SD 20
[2] = target: 125I-[Threonine59]IGF-I binding sites in adult rat brain sections (level of the cerebellum and brain stem) (rat); experiment: displacement of 0.01 nM 125I-[Thr59]IGF-I from rat brain sections; competitor at 200 nM
[3] = target: 125I-[Threonine59]IGF-I binding sites in adult rat brain sections (level of the cerebellum and brain stem) (rat); experiment: displacement of 0.01 nM 125I-[Thr59]IGF-I from rat brain sections; competitor at 400 nM
[4] = target: IGF-I receptor in homogenized adult rat brain tissue (cerebral cortex and cerebellum) (rat) (UniProt P24062); experiment: displacement of 20 pM 125I-[Thr59]IGF-I from homogenised rat brain tissue; competitor at 40 nM; SD 0.7
[5] = target: IGF-I receptor in homogenized adult rat brain tissue (cerebral cortex and cerebellum) (rat) (UniProt P24062); experiment: displacement of 20 pM 125I-[Thr59]IGF-I from homogenised rat brain tissue; competitor at 1 mM; SD 1.8
[6] = target: IGF-I receptor in homogenized adult rat brain tissue (cerebral cortex and cerebellum) (rat) (UniProt P24062); experiment: displacement of 20 pM 125I-[Thr59]IGF-I from homogenised rat brain tissue; competitor at 100 µM; SD 21
[7] = target: IGF-I receptor in homogenized adult rat brain tissue (cerebral cortex and cerebellum) (rat) (UniProt P24062); experiment: displacement of 20 pM 125I-[Thr59]IGF-I from homogenised rat brain tissue; competitor at 100 µM; SD 1.4
[8] = target: 125I-[Threonine59]IGF-I binding sites in adult rat brain sections (level of the cerebellum and brain stem) (rat); experiment: displacement of 0.01 nM 125I-[Thr59]IGF-I from rat brain sections; competitor at 4 pM
[9] = target: 125I-[Threonine59]IGF-I binding sites in adult rat brain sections (level of the cerebellum and brain stem) (rat); experiment: displacement of 0.01 nM 125I-[Thr59]IGF-I from rat brain sections; competitor at 400 pM
[10] = target: IGF-I receptor in homogenized adult rat brain tissue (cerebral cortex and cerebellum) (rat) (UniProt P24062); experiment: displacement of 20 pM 125I-[Thr59]IGF-I from homogenised rat brain tissue; competitor at 100 µM; SD 6

Chain of IGF-I receptor in homogenized adult rat brain tissue (cerebral cortex and cerebellum) (rat) (P24062 31-1370): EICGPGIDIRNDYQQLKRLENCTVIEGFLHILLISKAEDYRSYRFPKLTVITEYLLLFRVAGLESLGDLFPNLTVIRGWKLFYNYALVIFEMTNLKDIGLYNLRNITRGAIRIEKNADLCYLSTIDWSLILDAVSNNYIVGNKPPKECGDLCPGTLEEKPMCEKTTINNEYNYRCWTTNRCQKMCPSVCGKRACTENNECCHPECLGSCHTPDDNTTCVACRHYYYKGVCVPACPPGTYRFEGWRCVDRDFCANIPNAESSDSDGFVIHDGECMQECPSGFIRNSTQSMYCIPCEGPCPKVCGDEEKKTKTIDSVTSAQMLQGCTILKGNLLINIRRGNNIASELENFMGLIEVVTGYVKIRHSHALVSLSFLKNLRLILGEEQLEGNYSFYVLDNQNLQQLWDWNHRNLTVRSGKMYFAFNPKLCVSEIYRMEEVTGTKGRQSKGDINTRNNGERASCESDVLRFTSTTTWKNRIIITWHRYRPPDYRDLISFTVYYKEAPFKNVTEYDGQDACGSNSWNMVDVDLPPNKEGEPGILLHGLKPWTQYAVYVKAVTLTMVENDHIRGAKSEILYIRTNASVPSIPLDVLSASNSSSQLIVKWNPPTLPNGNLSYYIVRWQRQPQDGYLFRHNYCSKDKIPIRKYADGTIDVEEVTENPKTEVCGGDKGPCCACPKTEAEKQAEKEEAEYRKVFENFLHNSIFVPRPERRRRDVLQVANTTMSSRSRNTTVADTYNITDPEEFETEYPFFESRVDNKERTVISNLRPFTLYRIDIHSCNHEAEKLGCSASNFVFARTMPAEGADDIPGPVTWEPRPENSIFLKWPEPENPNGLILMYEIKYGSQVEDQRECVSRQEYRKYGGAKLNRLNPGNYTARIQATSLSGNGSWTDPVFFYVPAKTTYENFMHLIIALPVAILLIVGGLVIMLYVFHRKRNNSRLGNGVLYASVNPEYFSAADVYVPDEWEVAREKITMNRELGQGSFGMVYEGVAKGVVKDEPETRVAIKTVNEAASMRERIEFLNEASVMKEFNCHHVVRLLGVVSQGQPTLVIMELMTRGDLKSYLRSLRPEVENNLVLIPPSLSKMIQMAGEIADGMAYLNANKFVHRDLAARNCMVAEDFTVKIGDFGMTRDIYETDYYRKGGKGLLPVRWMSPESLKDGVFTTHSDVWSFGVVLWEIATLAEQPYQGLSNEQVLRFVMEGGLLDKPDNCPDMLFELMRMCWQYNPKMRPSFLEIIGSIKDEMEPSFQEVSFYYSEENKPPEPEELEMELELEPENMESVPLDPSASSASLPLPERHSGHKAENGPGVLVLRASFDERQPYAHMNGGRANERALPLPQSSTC
Chain of IGF-II (Somatomedin-A) (P01344 25-91): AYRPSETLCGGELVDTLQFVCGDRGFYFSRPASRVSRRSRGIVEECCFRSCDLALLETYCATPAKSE

IGF-I(62-70) (peptide)
percent max. bound [1]: 83%

IGF-II (Somatomedin-A) (from UniProt P01344 25-91) (ligand)
percent max. bound [2]: 50% | percent max. bound [3]: 23% | percent max. bound [4]: 92.1%

IGF-II(33-40) (peptide)
percent max. bound [5]: 92%

IGF-II(62-67) (peptide)
percent max. bound [6]: 83%

IGF-I(30-41) (peptide)
percent max. bound [7]: 94%

Human IGF-I (Somatomedin-C) (from UniProt P05019 49-118) (ligand)
percent max. bound [8]: 91% | percent max. bound [9]: 30%

IGF-II(54-67) (peptide)
percent max. bound [10]: 94%
